# Results: patent publication US8058240B2, “Biological active ligands of melanocortin receptors” (University of Florida Research Foundation, Inc., priority 2006, dated 2011)
# Ends that are not written are not given here.
# Assays:
# polymorphic hMC4Rs = assay: cAMP based functional bioassay, summary statements for the polymorphic hMC4Rs as a group; format: cell-based, human
# C271Y hMC4R [1] = target: T1, C271Y hMC4R (Homo sapiens, UniProt P32245, C271Y); assay: cAMP based functional bioassay, agonist stimulation, stably transfected HEK-293 cells; format: cell-based
# T1 construct: expressed in transfected cells
# S58C hMC4R [2] = target: T2, S58C hMC4R (Homo sapiens, UniProt P32245, S58C); assay: as above; format: cell-based; conditions: S58C hMC4R as printed; at up to 10^−5 M concentrations
# T2 construct: expressed in transfected cells
# L106P hMC4R [3] = target: T3, L106P hMC4R (Homo sapiens, UniProt P32245, L106P); assay: as above; format: cell-based; conditions: HEK293, L106P hMC4R, read-out: stimulation (maximal stimulation less than the forskolin control level)
# T3 construct: expressed in transfected cells
# G252S hMC4R = target: T4, G252S hMC4R (Homo sapiens, UniProt P32245, G252S); assay: cAMP based functional bioassay, antagonist Schild analysis against agonist MTII; format: cell-based; conditions: ± SEM
# T4 construct: expressed in transfected cells
# N97D hMC4R = target: T5, N97D hMC4R (Homo sapiens, UniProt P32245, N97D); assay: as above; format: cell-based
# T5 construct: expressed in transfected cells
# L106P hMC4R [4] = target: T3, L106P hMC4R; assay: as above; format: cell-based; conditions: ± SEM
# wild type (WT) hMC4R = target: T6, wild type (WT) hMC4R (Homo sapiens, UniProt P32245); assay: as above; format: cell-based; conditions: ± SEM
# T6 construct: expressed in transfected cells
# V253I hMC4R = target: T7, V253I hMC4R (Homo sapiens, UniProt P32245, V253I); assay: as above; format: cell-based; conditions: ± SEM
# T7 construct: expressed in transfected cells
# S58C hMC4R [5] = target: T2, S58C hMC4R; assay: as above; format: cell-based; conditions: ± SEM
# R165W hMC4R = target: T8, R165W hMC4R (Homo sapiens, UniProt P32245, R165W); assay: as above; format: cell-based; conditions: ± SEM
# T8 construct: expressed in transfected cells
# I301T hMC4R = target: T9, I301T hMC4R (Homo sapiens, UniProt P32245, I301T); assay: as above; format: cell-based; conditions: ± SEM
# T9 construct: expressed in transfected cells
# R165Q hMC4R = target: T10, R165Q hMC4R (Homo sapiens, UniProt P32245, R165Q); assay: as above; format: cell-based; conditions: ± SEM
# T10 construct: expressed in transfected cells
# I102S hMC4R = target: T11, I102S hMC4R (Homo sapiens, UniProt P32245, I102S); assay: as above; format: cell-based; conditions: ± SEM
# T11 construct: expressed in transfected cells
# T150I hMC4R = target: T12, T150I hMC4R (Homo sapiens, UniProt P32245, T150I); assay: as above; format: cell-based; conditions: ± SEM
# T12 construct: expressed in transfected cells
# S127L hMC4R = target: T13, S127L hMC4R (Homo sapiens, UniProt P32245, S127L); assay: as above; format: cell-based
# T13 construct: expressed in transfected cells
# C271Y hMC4R [6] = target: T1, C271Y hMC4R; assay: as above; format: cell-based; conditions: ± SEM
# I137T hMC4R = target: T14, I137T hMC4R (Homo sapiens, UniProt P32245, I137T); assay: as above; format: cell-based; conditions: ± SEM
# T14 construct: expressed in transfected cells
# [7] = Schild analysis, agonist MTII, ± SEM
compound,measurement,setting,value
"C[C@@H]1NC(=O)[C@H](CC(N)=O)NC(=O)[C@H](Cc2c[nH]c3ccccc23)NC(=O)[C@H](CCCNC(=N)N)NC(=O)[C@@H](Cc2ccccc2)NC(=O)[C@H](Cc2c[nH]cn2)NC(=O)[C@@H](NC(=O)[C@@H](N)Cc2ccc(O)cc2)CSSC[C@@H](C(=O)N[C@@H](Cc2ccc(O)cc2)C(N)=O)NC(=O)[C@H](Cc2ccccc2)NC1=O [AMW3-130, Tyr-c[Cys-His-DPhe-Arg-Trp-Asn-Ala-Phe-Cys]-Tyr-NH2]",agonist EC50 potency,polymorphic hMC4Rs; at all these polymorphic hMC4Rs,sub nM to mM
same,agonist function at these hMC4Rs,polymorphic hMC4Rs; eleven human MC4R polymorphisms,rescue
CSCC[C@H](NC(=O)[C@H](CCCNC(=N)N)NC(=O)[C@H](Cc1ccc(O)cc1)NC(=O)[C@@H]1CCCN1C(=O)CNC(=O)[C@H](CCC(=O)O)NC(=O)[C@H](CC(=O)O)NC(=O)[C@H](CCCCN)NC(=O)[C@H](CCCCN)NC(=O)[C@H](CCC(=O)O)NC(=O)[C@H](C)N)C(=O)N[C@@H](CCC(=O)O)C(=O)N[C@@H](Cc1c[nH]cn1)C(=O)N[C@@H](Cc1ccccc1)C(=O)N[C@@H](CCCNC(=N)N)C(=O)N[C@@H](Cc1c[nH]c2ccccc12)C(=O)NCC(=O)N[C@@H](CO)C(=O)N1CCC[C@H]1C(=O)N1CCC[C@H]1C(=O)N[C@@H](CCCCN)C(=O)N[C@@H](CC(=O)O)C(=O)O [β-MSH],response stimulated,C271Y hMC4R [1]; C271Y hMC4R,maximal response
SYSMEHFRWGKPVGKKRRPVKYPN [ACTH(1-24)],Emax at 1 µM,"C271Y hMC4R [1]; HEK293, C271Y hMC4R, at 1 μM, read-out: stimulation (maximal stimulation less than the forskolin control level)",42 to 58%
same,ability to stimulate this receptor,S58C hMC4R [2],inability
same,Emax at 1 µM,L106P hMC4R [3],40 to 50%
"hAGRP(87-132): endogenous C-terminal antagonist agouti-related protein ligand, purchased from Peptides International",Antagonist pA2,G252S hMC4R,8.53 ± 0.02
same,antagonist potency relative to the wild type control,N97D hMC4R,statistically significant decreased
same,Antagonist pA2,N97D hMC4R; [7],7.44 ± 0.11
same,Antagonist pA2,L106P hMC4R [4],8.27 ± 0.12
same,Antagonist pA2,wild type (WT) hMC4R,8.28 ± 0.11
same,Antagonist pA2,V253I hMC4R,8.41 ± 0.17
same,Antagonist pA2,S58C hMC4R [5],8.02 ± 0.13
same,Antagonist pA2,R165W hMC4R,8.52 ± 0.17
same,Antagonist pA2,I301T hMC4R,8.60 ± 0.07
same,Antagonist pA2,R165Q hMC4R,8.57 ± 0.06
same,Antagonist pA2,I102S hMC4R,8.17 ± 0.10
same,Antagonist pA2,T150I hMC4R,8.34 ± 0.06
same,antagonist potency relative to the wild type control,S127L hMC4R,statistically significant decreased
same,Antagonist pA2,S127L hMC4R; [7],7.06 ± 0.16
same,Antagonist pA2,C271Y hMC4R [6],8.45 ± 0.03
same,Antagonist pA2,I137T hMC4R,8.33 ± 0.12
